In publication doi:10.1101/212704 (bioRxiv, 2017):

T1: His-tagged MPS1 (UniProt P33981 1-857)
T1 sequence (looked up): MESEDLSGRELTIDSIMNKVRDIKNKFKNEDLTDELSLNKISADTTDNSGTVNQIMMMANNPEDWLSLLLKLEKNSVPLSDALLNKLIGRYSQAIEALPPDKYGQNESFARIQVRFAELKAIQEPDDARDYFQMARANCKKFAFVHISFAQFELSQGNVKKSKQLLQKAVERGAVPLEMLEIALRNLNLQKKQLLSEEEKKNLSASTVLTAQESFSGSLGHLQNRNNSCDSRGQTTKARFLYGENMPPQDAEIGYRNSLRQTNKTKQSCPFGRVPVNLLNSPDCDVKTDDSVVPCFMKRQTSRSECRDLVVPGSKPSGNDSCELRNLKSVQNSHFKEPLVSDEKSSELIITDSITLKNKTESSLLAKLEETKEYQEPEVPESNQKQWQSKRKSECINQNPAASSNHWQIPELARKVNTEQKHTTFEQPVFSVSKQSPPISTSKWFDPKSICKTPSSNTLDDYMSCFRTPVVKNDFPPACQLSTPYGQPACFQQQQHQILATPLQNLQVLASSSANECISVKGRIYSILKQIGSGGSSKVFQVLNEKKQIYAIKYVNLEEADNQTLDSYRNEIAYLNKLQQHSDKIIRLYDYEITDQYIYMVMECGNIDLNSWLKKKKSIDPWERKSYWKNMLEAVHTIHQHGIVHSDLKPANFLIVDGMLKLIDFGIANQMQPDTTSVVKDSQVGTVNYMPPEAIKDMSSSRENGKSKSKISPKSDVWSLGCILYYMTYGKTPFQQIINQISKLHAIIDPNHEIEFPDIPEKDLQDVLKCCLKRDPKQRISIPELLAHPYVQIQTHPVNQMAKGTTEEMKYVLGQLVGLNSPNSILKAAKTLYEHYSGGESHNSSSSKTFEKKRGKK

B1: GST-MAD1-NTD (domain or fragment, human, UniProt Q9Y6D9 1-485, looked up)
chain: MEDLGENTMVLSTLRSLNNFISQRVEGGSGLDISTSAPGSLQMQYQQSMQLEERAEQIRSKSHLIQVEREKMQMELSHKRARVELERAASTSARNYEREVDRNQELLTRIRQLQEREAGAEEKMQEQLERNRQCQQNLDAASKRLREKEDSLAQAGETINALKGRISELQWSVMDQEMRVKRLESEKQELQEQLDLQHKKCQEANQKIQELQASQEARADHEQQIKDLEQKLSLQEQDAAIVKNMKSELVRLPRLERELKQLREESAHLREMRETNGLLQEELEGLQRKLGRQEKMQETLVGLELENERLLAKLQSWERLDQTMGLSIRTPEDLSRFVVELQQRELALKDKNSAVTSSARGLEKARQQLQEELRQVSGQLLEERKKRETHEALARRLQKRVLLLTKERDGMRAILGSYDSELTPAEYSPQLTRRMREAEDMVQKVHSHSAEMEAQLSQALEELGGQKQRADMLEMELKMLKSQSS
B2: GST-MAD1-MIM (domain or fragment, human, UniProt Q9Y6D9 485-584, looked up)
chain: SSAEQSFLFSREEADTLRLKVEELEGERSRLEEEKRMLEAQLERRALQGDYDQSRTKVLHMSLNPTSVARQRLREDHSQLQAECERLRGLLRAMERGGTV
B3: MAD2^LARQ (L13A/R133E/Q134A) (natural protein, UniProt Q13257 2-205, looked up)
chain: ALQLSREQGITARGSAEIVAEFFSFGINSILYQRGIYPSETFTRVQKYGLTLLVTTDLELIKYLNNVVEQLKDWLYKCSVQKLVVVISNIESGEVLERWQFDIECDKTAKDDSAPREKSQKAIQDEIRSVIEAITATVTFLPLLEVSCSFDLLIYTDKDLVVPEKWEESGPQFITNSEEVRLRSFTTTIHKVNSMVAYKIPVND
B4: GST-tagged MAD1-CTD globular subdomain (638-718 residues) (domain or fragment, human, UniProt Q9Y6D9 638-718, looked up)
chain: GYQIDITTENQYRLTSLYAEHPGDCLIFKATSPSGSKMQLLETEFSHTVGELIEVHLRRQDSIPAFLSSLTLELFSRQTVA

What was measured:
Test in all cases: pull-down
[1] = target: T1, His-tagged MPS1
[2] = target: untagged MAD2^L13A (UniProt Q13257 2-205, L13A)
[3] = target: 6×His-tagged wild type MAD2 (UniProt Q13257 2-205)
[4] = target: B1

Binder: B1
binding result [1]: binds

Binder: B2
binding result [2]: binds | binding result [3]: binds

Binder: B3
binding result [4]: binds

Binder: B4
binding result [2]: binds
